Experimental findings from patent US20170152290A1 are described below.

This experiment addresses sLRP1-CIV (cluster IV of LRP1 fused to the constant region of a human IgG1) (human). The experiment is described as follows: SPR (Biacore X), sLRP1-CIV immobilised on CM5 chip, peptide at 20 µM; RU observed at 160 s. On the technique in general: In SPR one partner is held on a chip, and binding of the other changes the refractive index at the surface.

CSNIVIGIGDKALKINACKKK (modifications not checked) [peptide HDIII3CLW-]: the RU (at 160 s) worked out at 192 RU.

SSNIVIGIGDKALKINWSKKK (modifications not checked) [peptide HDIII3CLC-] showed an RU (at 160 s) of 38.2 RU.
